Measured values: the nanobody polyreactivity screen of Harvey et al. (2022)

test: yeast display, Sf9 membrane polyspecificity reagent, FACS + sequencing; frameworks hold sequencing errors
Summary of the method: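 A synthetic nanobody library was expressed on Saccharomyces cerevisiae BJ5465 by galactose induction for 36–48 hours. The library was stained for 1 hour at 4 °C with 10% biotinylated, detergent-solubilized Sf9 membrane reagent and enriched with streptavidin microbeads before FACS. Low and high (top ~1%) gates were set on anti-HA fluorescence for expression and streptavidin fluorescence for reagent binding, and each polyreactivity label reflects the gate of origin.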

Sequence	polyreactivity (PSR sort gate)
QVQLVESGGGLVQAGGSLRLSCAASGRIFQPYAMGWYRPAPGKDRELVAAITRRAGSTYYADSVKGRFTISRDNAKYTVYLQMNSLKPEDTAVYYCAARGLYWAYEMEYWGQGTQVTVSS	low polyreactivity
QVQLVESGGGLVQAGGSLRLSCAASGRIFQPYAMGWYRQAPGKERELVARITSGGSTYADSVKGRFTISRDNAKNTVYLQMNSLKPEDTAVYYCAVRYPWYYRGYAYDYWGQGTQVTVSS	high polyreactivity
QVQLVESGGGLVQAGGSLRLSCAASGRIFQRNAMGWYRQAPGKEREFVAAITKSGGGTYADSVKGRFTISRDNAKNTVYLQMISLKPEDTAVYYCNVVPVWRPYSLINWQKHFGYWGQGTQVTVSS	high polyreactivity
QVQLVESGGGLVQAGGSLRLSCAASGRIFQRNVMGWYRQAPGKERELVAAITGSGGSTYYADSLKGRFTISRDNAKNTVYLQMNSLKPEYTAVYYCAAKVYRGYDYWGQGTQVTVSS	high polyreactivity
QVQLVESGGGLVQAGGSLRLSCAASGRIFQRYAMGWYRQAPGKERELVAAISSSGTTYYADSVKGRFTISRDNAKNTVYLQMNSLKPEDTAVYYCAATYYTSRISRRYGYWGQGTQVTVSS	high polyreactivity
QVQLVESGGGLVQAGGSLRLSCAASGRIFQRYTMGWYRQAPGKEREFVAAITYSGGSTHYADSVKGRFTISRDNAKNTVYLQMNSLKPEDTAVYYCIADRYYGRGYGYWGQGTQVTVSS	low polyreactivity
QVQLVESGGGLVQAGGSLRLSCAASGRIFQRYTMGWYRQAPGKEREFVAAITYSGGSTHYADSVKRRFTISRDNAKYTVYLQMNSLKPEDTAVYSCNARTSVLHDYWGQGTQVTVSS	low polyreactivity
QVQLVESGGGLVQAGGSLRLSCAASGRIFQYYAMGWYRQAPGKERELVAAINSSGGRTYYADSVKGRFTISRDNAKNTVYLQMNSLKPEDTAVYYCNAVLSTRGMDYWGQGTQVTVSS	high polyreactivity
QVQLVESGGGLVQAGGSLRLSCAASGRIFQYYAMGWYRQAPGKERELVAAISSAGSTYYADSVKGRFTISRDNAKNTVYLQMNSLKPEDTAVYYCAVGKQVLSYQNYYWGQGTQVTVSS	low polyreactivity
QVQLVESGGGLVQAGGSLRLSCAASGRIFQYYAMGWYRQAPGKERELVAAITRSGGSTYYADSVNGRFTISRDNAKNTVYLQMNSLKPEDTAVYYCARTYWITNSKFRDYLGAYGGEYWGQGTQVTVSS	high polyreactivity
QVQLVESGGGLVQAGGSLRLSCAASGRIFQYYAMGWYRQATGKERELVAAISRTGSPYYADSVKGRVTISRDNAKNTVSLQMNSLTPADTAVYFCAADYWPQSNRWVYFRYGYWGLGTQVTVSS	high polyreactivity
QVQLVESGGGLVQAGGSLRLSCAASGRIFRANAMGWYRQAPGKERELVAAISTSGGSTTYADSVKGRFTISRDNAKNTVYLQMNCLKPEDTAVYYCAVDSWLKWRDKWVIRHDYWGQGTQVTVSS	high polyreactivity
QVQLVESGGGLVQAGGSLRLSCAASGRIFRANTMGWYRQAPGKERELVAVITASGGSTYYADSVKGRFTISRDNAKNTVYLQMNSLKPEDTAVYYCNRVPRTRLSGHDYWGQGTQVTVSS	high polyreactivity
QVQLVESGGGLVQAGGSLRLSCAASGRIFRAYAMGWYRQAPGKERELVAAITSGVSTNYADSVKGRFTISRDNAKNTVYLQMNSLKPEDTAVYYCAVLGKRNAYYYWGQGTQVTVSS	low polyreactivity
QVQLVESGGGLVQAGGSLRLSCAASGRIFRAYAMGWYRQAPGKERELVASITGSGGSTYYADSVKGRFTISRDNAKNTVYFQMNILKPEDTAVYYCAVASYRVWGVGTRYYYWGQGTHVTVSS	high polyreactivity
QVQLVESGGGLVQAGGSLRLSCAASGRIFRAYTMGWYRPAPGKERELVAAISTRSGRTYYADSVKGRFTISRDKEKNTVYLQMNSLKPEDTAVYYCAADRSGSAWYGYWGQGTQVTVSS	high polyreactivity
QVQLVESGGGLVQAGGSLRLSCAASGRIFRDYVMGWYRQAPGKERELVAAITQRGGSTYYADSVKGRFTISRDNAKNTVYLQLNSLKPEDTAVYYCNARWYRYGTGGVGYGGYDYWGQGTQVTVSS	low polyreactivity
QVQLVESGGGLVQAGGSLRLSCAASGRIFRENAMGWYRQAPGKERELVAAINRSGSRTYYADSVKGRFTISRDNAKNTVYLQMNSLKPEDTAVYYCATASSIRYDYWGQGTQVTVSS	high polyreactivity
QVQLVESGGGLVQAGGSLRLSCAASGRIFRGNAMGWYRQAPGKERELVARITGNDGDTYYADSVKGRFTISRDNAKNTVYLQMNSLKPEDTAVYYCATDTSSYRRRYYYWGQGTQVTVSS	low polyreactivity
QVQLVESGGGLVQAGGSLRLSCAASGRIFRGNAMGWYRQVPGKERELVAAISSGTRTTYADSVKGRFTISRDNAKNTVYLQMNSLKPEDTAVYYCAARTSNYPRWRVGGYSYDYWGQGTQVTVSS	high polyreactivity
QVQLVESGGGLVQAGGSLRLSCAASGRIFRGNAMGWYRQVPGKERELVAAISSGTRTTYADSVKGRFTISRDNAKNTVYLQMNSLKPEDTAVYYCAAYNSYLGYPYYYWGQGTQVTVSS	high polyreactivity

Sequence	polyreactivity (PSR sort gate)
QVQLVESGGGLVQAGGSLRLSCAASGRIFRGYAMGWYRQAPGKERELVATISAIGGSTYADSVKGRFTISRDNAKNTVYLQMNSLKPEDTAVYYCNVRKVYRYQYRFEYWGQGTQVTVSS	high polyreactivity
QVQLVESGGGLVQAGGSLRLSCAASGRIFRGYAMGWYRQAPGKERELVAVISYSGTRTYYADSVKGRFTISRDNAKNTVYLQMNSLKPEDTAVYYCNARANGFKDGYWGQGTQVTVSS	high polyreactivity
QVQLVESGGGLVQAGGSLRLSCAASGRIFRGYAMGWYRQAPGTERELVAAISRRGGSTYYAASVKGRFTISRDNAKNTVYLQNNSLKPEDTAVYYCNADGVHYVAYAGGYWGQGTQVTVSS	high polyreactivity
QVQLVESGGGLVQAGGSLRLSCAASGRIFRGYVMGWYRQAPGKERELVAVITSGGRTYYADSVKGRFTISRDNAKNTVYLQMNSHKPEDTAVYYCATYPRYKPYYYWGQGTQVTVSS	low polyreactivity
QVQLVESGGGLVQAGGSLRLSCAASGRIFRHNTMGWYLQAPGKERELVAAIRYSGGRTYYADSVKGRFTLSRDTAKNTFYLQMNSLKPEDTAVYYCAATYFAAVYSSWYWFDYWGQGTQVTVSS	high polyreactivity
QVQLVESGGGLVQAGGSLRLSCAASGRIFRHNTMGWYRQAPGNESELVAGITASGGDTYYADSVTGRFTISRDNAKNTVYLQMNSLNPEDTAVYDCATSQYGYRSWPGLYYWGQGTQVTVSS	low polyreactivity
QVQLVESGGGLVQAGGSLRLSCAASGRIFRINAMGWYRQAPGKERELVATISSGGGSTYADSVKGRFTISRDNAKTTVYLQMNSLKPEDTAVYYCAARSRIGRYTYDYWGQGTQVTVSS	high polyreactivity
QVQLVESGGGLVQAGGSLRLSCAASGRIFRINAMGWYRQAPGKERELVATITSGGRTKYADSVKGRFTISRDNAKNTVYLQMNSLKPEDTAVYYCAADWRVRVRQHIPDKYDYWGQGTQVTVSS	low polyreactivity
QVQLVESGGGLVQAGGSLRLSCAASGRIFRINGMGWYRQAPGKEREFVAAITSGGGTYYADSVKGRFTISRDNAKNTVYLQMNSLKPEDTAVYYCAVRRRYGDDYWGQGTQVTVSS	high polyreactivity
QVQLVESGGGLVQAGGSLRLSCAASGRIFRKNARGWYRQAPGKEREFVAAIRLSGGRTFYADSVKGRFTISRDNAKNTVYLQMNSLKPEDTAVYYCAAETVNGKHDYWGQGTQVTVSS	high polyreactivity
QVQLVESGGGLVQAGGSLRLSCAASGRIFRKNVMGWYRQAPGKERELVAAIRWSGGGTYYADSVKGRFTISRDNAKNTVYLQMNSLKPEDTAVYYCAAVPTSSAYDYWGQGTQVTVSS	high polyreactivity
QVQLVESGGGLVQAGGSLRLSCAASGRIFRLYAMGWYRQAPGKERELGAAISSRGGDTYADSVKGRFTISRDNAKNTVYLQMNSLKPEDTAVYYCNDVIYYPYKSGVWYYEYDYWGQGTKVTVSS	low polyreactivity
QVQLVESGGGLVQAGGSLRLSCAASGRIFRLYAMGWYRQSPGKERELVATITSGGTYYADSVKGRFTISRDNAKNTVYLQMNSLKPEDTAVYYCTARRRLRYDYWGQGTQVTVSS	low polyreactivity
QVQLVESGGGLVQAGGSLRLSCAASGRIFRPNAMGWNRQAPGKVRELVAAISSGGSTYYADSVKGRFTISRDNAKNTVYLQMNSLKPEDTAVYYCAARSRGYDIRYGYWGQGTQVTVSS	high polyreactivity
QVQLVESGGGLVQAGGSLRLSCAASGRIFRPYAMGWYRLAPGKERELVAAISWSGDDTYYADSVKGRFTISRDNAKNTVYLQMNSLKPEDTAVYYCAAEVYAAAYDYWGQGTQVTVSS	low polyreactivity
QVQLVESGGGLVQAGGSLRLSCAASGRIFRPYAMGWYRQAPGKERELVAAITQSGGITSYADSVKGRFTISRDNAKNSVYLQMNSLKPEDTAVYYCATTSRYTRSHYDWYDYWGQGTQVTVSS	low polyreactivity
QVQLVESGGGLVQAGGSLRLSCAASGRIFRPYTMGWYRQAPGKERELVAAITSGSSTNYADSVKGRFTISRDNAKNTVYLHMNSLKPEDTAVYYCAVKVRIFASYYPFYYWGQGSQVTVSS	high polyreactivity
QVQLVESGGGLVQAGGSLRLSCAASGRIFRQNAMGWYRQAPGKERELVAAISRSGGSTYYADSVKGRFTISRDNAKNTVYLQMNSLNPEDTAVYYCNRDYQSQRTYPRRYDYWGQGTQVTVSS	low polyreactivity
QVQLVESGGGLVQAGGSLRLSCAASGRIFRQYAMGWYRQAPGKERELVAAITSGGSTNYADSVKGRFTISRDNAKNTVYLQMNSLKPEDTAVYYCNAAGGTRSGVQYDYWGQGTQVTVSS	low polyreactivity
QVQLVESGGGLVQAGGSLRLSCAASGRIFRQYAMGWYRQAPGKERELVAAITSGGSTNYADSVKGRFTISRDNAKNTVYLQMNSLKPEDTAVYYCNARWPYAYQDGYWGQGTQVTVSS	low polyreactivity
